Measured values published in patent US20140105889A1 (published 2014).
Residue numbers refer to the chain shown, from its start. Numbers in names are those of the source. Like-named read-outs stand apart in the source and are kept apart here.

Assays:
mouse FcγRIV [1] = target: T1, mouse FcγRIV (mouse); assay: SPR (Biacore), antibody captured on Protein L, mouse FcγR as analyte, pH 7.4, 25 C
T1 construct: Bought soluble receptor; also called mFcgRIV; mFcgR IV

mouse FcγRIV [2] = target: T1, mouse FcγRIV; assay: SPR (Biacore), antibody captured on Protein L, mouse FcγR as analyte, pH 7.4, 25 C (method of Example 4, RU)
human FcγRIIIa(F) [3] = target: T2, human FcγRIIIa(F) (human, UniProt P08637 17-208, limits assumed); assay: SPR (Biacore T100), antibody captured by Protein A, FcγR as analyte, HBS-EP+, 25°C, 1:1 Langmuir global fit
T2 construct: also called FcgRIIIaF; hFcgRIIIa(F)

human FcγRIIIa(F) [4] = target: T2, human FcγRIIIa(F); assay: SPR (Biacore T100), ratio of the KD values of Table 24, reference IgG1 (IL6R-G1d/IL6R-L)
human FcγRIIIa(F) [5] = target: T2, human FcγRIIIa(F); assay: SPR (Biacore T100), antibody captured by Protein A, FcγR as analyte, 25°C; weak binding, KD calculated by Equation 5 (1:1 binding model)
[6] = target: T3, human FcRn (soluble human FcRn complexed with β2-microglobulin) (human, UniProt P61769 21-119); assay: Biacore SPR, pH 7.0, 25 C; antibody captured by Protein L, human FcRn as analyte
T3 construct: also called hFcRn

[7] = target: T4, human FcRn (soluble human FcRn complexed with β2-microglobulin) (human, UniProt P61769 21-119); assay: SPR (Biacore), Protein L capture, hFcRn analyte, pH 7.0
T4 construct: also called hFcRn

human FcγRIIIa(F) [8] = target: T5, human FcγRIIIa(F) (human, UniProt P08637 17-208, limits assumed); assay: SPR (Biacore), antibody captured on Protein L, human FcγR as analyte, pH 7.4, 25 C
T5 construct: also called hFcgRIIIa(F); hFcgRIIIa

human FcγRIIIa(F) [9] = target: T5, human FcγRIIIa(F); assay: as above; remark: listed apart in the source
human FcRn [10] = target: T6, human FcRn (human); assay: SPR (Biacore), pH 7.0, 25 C; antibody captured on Protein L, human FcRn injected
T6 construct: Soluble human FcRn complexed with beta2-microglobulin; also called hFcRn; soluble human FcRn complexed with β2-microglobulin

human FcRn [11] = target: T6, human FcRn; assay: as above; remark: listed apart in the source
[12] = target: T7, human FcRn (soluble human FcRn complexed with beta2-microglobulin) (human, UniProt P61769 21-119); assay: SPR (Biacore), pH 7.0, 25 C, antibody captured by Protein L, human FcRn as analyte
T7 construct: also called hFcRn

[13] = target: T7, human FcRn (soluble human FcRn …); assay: as above; remark: listed apart in the source
human FcRn [14] = target: T8, human FcRn (human); assay: as above
T8 construct: also called hFcRn; soluble human FcRn complexed with β2-microglobulin

human FcRn [15] = target: T9, human FcRn (human); assay: SPR (Biacore), antibody captured by Protein L, human FcRn as analyte, pH 7.0
T9 construct: Soluble human FcRn complexed with β2-microglobulin; also called hFcRn; soluble human FcRn complexed with β2-microglobulin

human FcRn [16] = target: T9, human FcRn; assay: as above; remark: listed apart in the source
human FcRn [17] = target: T9, human FcRn; assay: as above; remark: listed apart in the source

T1 sequence (A0A0B4J1G0 21-203): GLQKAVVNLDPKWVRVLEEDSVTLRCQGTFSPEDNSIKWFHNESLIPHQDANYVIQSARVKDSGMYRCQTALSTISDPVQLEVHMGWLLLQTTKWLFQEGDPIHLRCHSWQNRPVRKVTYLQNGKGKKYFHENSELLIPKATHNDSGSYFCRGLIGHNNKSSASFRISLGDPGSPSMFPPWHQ
T7 sequence (chain, as listed by the source limits assumed, chain 1 of 2): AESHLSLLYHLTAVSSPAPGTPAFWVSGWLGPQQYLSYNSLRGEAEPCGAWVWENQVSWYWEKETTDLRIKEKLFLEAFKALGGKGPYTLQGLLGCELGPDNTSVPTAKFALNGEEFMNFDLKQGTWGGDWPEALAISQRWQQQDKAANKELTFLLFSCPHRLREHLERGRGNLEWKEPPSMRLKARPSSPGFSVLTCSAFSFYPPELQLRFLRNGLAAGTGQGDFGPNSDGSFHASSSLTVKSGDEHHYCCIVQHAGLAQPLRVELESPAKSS
T7 sequence (P61769 21-119 limits assumed, chain 2 of 2): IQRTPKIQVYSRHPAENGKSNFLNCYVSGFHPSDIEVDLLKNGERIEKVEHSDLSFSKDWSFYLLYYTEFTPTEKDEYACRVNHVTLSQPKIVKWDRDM

B1: antibody with VH3-IgG1-F947 heavy chain and L(WT)-CK light chain (antibody)
heavy: QVQLQESGPGLVKPSETLSLTCAVSGHSISHDHAWSWVRQPPGEGLEWIGFISYSGITNYNPSLQGRVTISRDNSKNTLYLQMNSLRAEDTAVYYCARSLARTTAMDYWGEGTLVTVSSASTKGPSVFPLAPSSKSTSGGTAALGCLVKDYFPEPVTVSWNSGALTSGVHTFPAVLQSSGLYSLSSVVTVPSSSLGTQTYICNVNHKPSNTKVDKKVEPKSCDKTHTCPPCPAPELLGGPSVFLFPPKPKDVLYISRTPEVTCVVVDVSHEDPEVKFNWYVDGVEVHNAKTKPREEQYNSTYRVVSVLQPLHADWLNGKEYKCKVSNKALPAPIEKTISKAKGQPREPQVYTLPPSRDELTKNQVSLTCLVKGFYPSDIAVEWESNGQPENNYKTTPPVLDSDGSFFLYSKLTVDKSRWQQGNVFSCSVMHEALHYHVTQKSLSLSP
light: not shown
notes: copies: 2 + 2
Mouse FcγRIV [1]
  BINDING AMOUNT (RU): 242 RU
Mouse FcγRIV [2]
  BINDING AMOUNT: 279

B2: antibody with VH3-IgG1-F1326 heavy chain and L(WT)-CK light chain (antibody)
heavy: B1 heavy with L236A, L237A
light: not shown
notes: copies: 2 + 2
Mouse FcγRIV [2]
  BINDING AMOUNT: 85.6

B3: IgG1 (IL6R-G1d / IL6R-L) (antibody)
heavy: not shown
light: DIQMTQSPSSLSASVGDRVTITCRASQDISSYLNWYQQKPGKAPKLLIYYTSRLHSGVPSRFSGSGSGTDFTFTISSLQPEDIATYYCQQGNTLPYTFGQGTKVEIK
notes: Anti-human IL-6 receptor antibody; G1d constant region (IgG1 without C-terminal Gly and Lys); L chain of tocilizumab
Human FcγRIIIa(F) [3]
  Kd: 3100 nM

B4: IgG1-v1 (IL6R-G1d_v1 / IL6R-L) (antibody)
heavy: not shown
light: B3 light
notes: IL6R-G1d with P238D (EU numbering)
Human FcγRIIIa(F) [4]
  relative KD (KD of IgG1 / KD of the variant): 0.061 fold
Human FcγRIIIa(F) [5]
  Kd: 51000 nM

B5: IgG1-v2 (IL6R-G1d_v2 / IL6R-L) (antibody)
heavy: not shown
light: B3 light
notes: IL6R-G1d with L328E (EU numbering)
Human FcγRIIIa(F) [4]
  relative KD (KD of IgG1 / KD of the variant): 0.14 fold
Human FcγRIIIa(F) [5]
  Kd: 23000 nM

B6: IgG1-v3 (IL6R-G1d_v3 / IL6R-L) (antibody)
heavy: not shown
light: B3 light
notes: IL6R-G1d with S267E/L328F (EU numbering)
Human FcγRIIIa(F) [4]
  relative KD (KD of IgG1 / KD of the variant): 0.35 fold
Human FcγRIIIa(F) [3]
  Kd: 8800 nM

B7: IgG1-F185 (antibody, name in EU numbering)
heavy: B1 heavy with V252T, Y254W, Q309T, P310V, A313Q, I334V, V438Y
light: not shown
notes: VH3-IgG1 Fc variant; EU numbering
[6]
  Kd: 260 nM

B8: IgG1-F197 (antibody, name in EU numbering)
heavy: B1 heavy with V252T, Y254M, P259T, P310V, A313Q, M430L, V438Y
light: not shown
notes: as for B7
[6]
  Kd: 33 nM

B9: IgG1-F492 (antibody, name in EU numbering)
heavy: B1 heavy with V252T, Y254M, P259V, V307A, Q309A, P310V, A313Q, N327G, M430L, V438Y
light: not shown
notes: copies: 2 + 2
[7]
  Kd: 98 nM

B10: IgG1-F527 (antibody, name in EU numbering)
heavy: B1 heavy with V252T, Y254M, P259V, A313Q, N327G, M430Y, V438Y
light: not shown
notes: copies: 2 + 2
[7]
  Kd: 9.4 nM

B11: IgG1-F529 (antibody, name in EU numbering)
heavy: B1 heavy with V252T, Y254M, P259T, P310V, A313Q, M430F, V438Y
light: not shown
notes: copies: 2 + 2
[7]
  Kd: 25 nM

B12: VH3/L(WT)-IgG1-F698 (antibody, name in EU numbering)
heavy: B1 heavy with V252T, N288E, P310V, V438Y
light: not shown
notes: The positions are EU numbering, not positions on the entry; copies: 2 + 2
Human FcγRIIIa(F) [8]
  BINDING AMOUNT (RU): 55.9 RU
Human FcγRIIIa(F) [9]
  BINDING AMOUNT (RU): 55.9 RU

B13: VH3/L(WT)-IgG1-F699 (antibody, name in EU numbering)
heavy: B1 heavy with S241K, V252T, N288E, P310V, V438Y
light: not shown
notes: as for B12
Human FcγRIIIa(F) [8]
  BINDING AMOUNT (RU): -2 RU

B14: VH3/L(WT)-IgG1-F763 (antibody, name in EU numbering)
heavy: B1 heavy with L237R, S241K, V252T, N288E, P310V, V438Y
light: not shown
notes: as for B12
Human FcγRIIIa(F) [9]
  BINDING AMOUNT (RU): -2.9 RU

B15: IgG1-F755 (antibody)
heavy: B1 heavy with P240D, V252S, Q309T, P310V, A313Q, V438Y
light: not shown
notes: Substitutions by EU numbering; copies: 2 + 2
Human FcRn [10]
  Kd: 350 nM

B16: IgG1-F770 (antibody)
heavy: B1 heavy with V252T, T258A, Q309T, P310V, A313Q, V438Y
light: not shown
notes: as for B15
Human FcRn [10]
  Kd: 300 nM

B17: IgG1-F791 (antibody)
heavy: B1 heavy with V252T, Q309T, P310V, A313Q, N317F, V438Y
light: not shown
notes: as for B15
Human FcRn [11]
  Kd: 440 nM

B18: IgG1-F802 (antibody)
heavy: B1 heavy with V252T, Q309T, P310V, A313Q, N317V, V438Y
light: not shown
notes: as for B15
Human FcRn [11]
  Kd: 330 nM

B19: IgG1-F1014 (antibody, name in EU numbering)
heavy: B1 heavy with L237R, S241K, V438Y
light: not shown
[12]
  Kd: 32 nM

B20: IgG1-F1017 (antibody)
heavy: B1 heavy with L237R, S241K, N288E
light: not shown
[12]
  Kd: 4.2 nM

B21: IgG1-F1019 (antibody, name in EU numbering)
heavy: B1 heavy with P240D, Q309T, P310V, A313Q, N327G, V438Y
light: not shown
[12]
  Kd: 340 nM

B22: IgG1-F1031 (antibody, name in EU numbering)
heavy: B1 heavy with G238A, S241D, P310V, I334E
light: not shown
[13]
  Kd: 53 nM

B23: IgG1-F1039 (antibody, name in EU numbering)
heavy: B1 heavy with L237K, P240D, S241K, V252T, Q309T, P310V, A313Q
light: not shown
[13]
  Kd: 130 nM

B24: F1189 (antibody, name in EU numbering)
heavy: B1 heavy with V252T, Q309T, P310V, A313Q, H435D, Q440R, S442E
light: not shown
notes: copies: 2 + 2
Human FcRn [14]
  Kd: 157 nM

B25: F1192 (antibody, name in EU numbering)
heavy: B1 heavy with V252T, Q309T, P310V, A313Q, T439G, Q440R, S442E
light: not shown
notes: copies: 2 + 2
Human FcRn [14]
  Kd: 127 nM

B26: F1211 (antibody, human IgG1, kappa, name in EU numbering)
heavy: B1 heavy with V252T, L253H, Q309T, P310V, A313Q
light: not shown
notes: copies: 2 + 2
Human FcRn [14]
  Kd: 1230 nM

B27: IgG1-F1288 (antibody, name in EU numbering)
heavy: B1 heavy with L237R, S241K, V252T, T258E, Q309T, P310V, A313Q, Q440K, S442D
light: not shown
notes: light chain L(WT)-CK; copies: 2 + 2
Human FcRn [15]
  Kd: 79.5 nM

B28: IgG1-F1289 (antibody, name in EU numbering)
heavy: B1 heavy with L237R, S241K, V252T, T258E, Q309T, P310V, A313Q, H435D, Q440R, S442E
light: not shown
notes: as for B27
Human FcRn [15]
  Kd: 133 nM

B29: IgG1-F1311 (antibody, name in EU numbering)
heavy: B1 heavy with L237R, S241K, V252T, Q309T, P310V, A313Q, V424A, S426A, H435D
light: not shown
notes: as for B27
Human FcRn [15]
  Kd: 169 nM

B30: IgG1-F1335 (antibody, name in EU numbering)
heavy: B1 heavy with L237R, G238R, S241K, V252T, S256T, Q309T, P310V, A313Q, Q440K, S442D
light: not shown
notes: as for B27
Human FcRn [16]
  Kd: 87.8 nM

B31: IgG1-F1339 (antibody, name in EU numbering)
heavy: QVQLQESGPGLVKPSETLSLTCAVSGHSISHDHAWSWVRQPPGEGLEWIGFISYSGITNYNPSLQGRVTISRDNSKNTLYLQMNSLRAEDTAVYYCARSLARTTAMDYWGEGTLVTVSSASTKGPSVFPLAPSSKSTSGGTAALGCLVKDYFPEPVTVSWNSGALTSGVHTFPAVLQSSGLYSLSSVVTVPSSSLGTQTYICNVNHKPSNTKVDKKVEPKSCDKTHTCPPCPAPELRGGPKVFLFPPKPKDTLYITREPEVTCVVVDVSHEDPEVKFNWYVDGVEVHNAKTKPREEQYNSTYRVVSVLTVLHQDWLNGKEYKCKVSNKALPAPIEKTISKAKGQPREPQVYTLPPSRDELTKNQVSLTCLVKGFYPSDIAVEWESNGQPENNYKTTPPVLDSDGSFFLYSKLTVDKSRWQQGNVFSCSVMHEALDYHTTKKELSLSP
light: not shown
notes: as for B27
Human FcRn [16]
  Kd: 251 nM

B32: IgG1-F1340 (antibody, name in EU numbering)
heavy: B31 heavy with D435H, T438V
light: not shown
notes: as for B27
Human FcRn [16]
  Kd: 55.8 nM

B33: IgG1-F1364 (antibody, name in EU numbering)
heavy: B31 heavy with T256S, D435H, T438F
light: not shown
notes: as for B27
Human FcRn [17]
  Kd: 74.9 nM
